From US20230272088A1 (SYNTHEKINE, published 2023)

Experiments:
[1] = biological target: T1, extracellular domain of mIFNGR1 (mouse, UniProt P15261 26-254, conjugated to Alexa647 (site not stated)); experiment: flow cytometry
T1 construct: Origin and tags of the murine antigen are not described; UniProt P15261 residues 26-254; also called mIFNGR1-ECD; murine IFNGR1 ECD
T1 sequence: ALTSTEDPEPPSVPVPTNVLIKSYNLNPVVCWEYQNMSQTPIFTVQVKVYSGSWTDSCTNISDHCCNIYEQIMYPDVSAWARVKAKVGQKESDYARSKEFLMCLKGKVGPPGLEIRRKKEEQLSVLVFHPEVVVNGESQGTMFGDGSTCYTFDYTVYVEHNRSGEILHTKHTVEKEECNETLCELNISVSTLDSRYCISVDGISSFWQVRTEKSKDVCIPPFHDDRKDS

[2] = biological target: T2, extracellular domain of hIFNGR1 (human, UniProt P15260 18-245, conjugated to Alexa647 (site not stated)); experiment: flow cytometry
T2 construct: UniProt P15260 residues 18-245; also called hIFNGR1-ECD; human IFNGR1 ECD
T2 sequence: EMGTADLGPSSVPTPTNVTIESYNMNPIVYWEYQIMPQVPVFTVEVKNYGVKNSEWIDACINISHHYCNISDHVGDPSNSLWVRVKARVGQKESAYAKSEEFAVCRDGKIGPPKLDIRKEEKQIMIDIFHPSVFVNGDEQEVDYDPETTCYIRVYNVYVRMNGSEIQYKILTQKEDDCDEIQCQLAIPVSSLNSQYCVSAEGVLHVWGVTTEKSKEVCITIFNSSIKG

binding result [1]: binds
binding result [2]: binds
B1: DR908 (VHH)
VHH: EVQLVESGGGLVQAGGSLRVTCAASGRTFTSLAMGWFRQAPGKEREFVAAISRSGGSTDYADSVKGRFFISRDNAKSTLYLQMSSLKPEDTAVYYCAARDYSTLQYYNEYEYSDWGQGTQVTVSS
notes: also called anti-IFNGR1 sdAb VHH DR908
